This is an account of results in paper PMC10325919 (2023).

The assay deals with T1, E. coli expressed BAHD1(aa:588–780) (UniProt Q8TBE0 588-780).
T1 chain: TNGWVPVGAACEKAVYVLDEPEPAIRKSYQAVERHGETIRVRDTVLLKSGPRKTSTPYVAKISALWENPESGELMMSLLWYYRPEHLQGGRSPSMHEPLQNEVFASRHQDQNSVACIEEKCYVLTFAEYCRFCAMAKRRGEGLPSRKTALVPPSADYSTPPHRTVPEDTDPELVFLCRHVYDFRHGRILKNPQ
Put plainly: FP.

Starred links: 1 amine or outer side, 2 acyl side, 3 side chain; linkers in the order of their positions; H or OH if unused. Non-standard residues stand in square brackets, D forms with d. No end group written: not given here. Lys(Me3) = C[N+](C)(C)CCCC[C@H](N)C(=O)O; Ethylenediamine = C(CN[*:2])N[*:1]; 5‑FAM = 5-carboxyfluorescein; GABA = NCCCC(=O)O

PRKQLATKAAR[Lys(Me3)]SAPATGG-{Ethylenediamine-GABA-5‑FAM} [H3 16–35 K27me3 peptide] returned a Kd of 700 nM.

As usually defined, the Kd is a measure of binding affinity in units of concentration.
